Results published in the supplement of paper PMC9732359.
± gives the uncertainty stated by the source.

Assay: protein stability index of a GFP-peptide fusion (yeast GPS) (PSI 1-4); higher = more stable; sorted into four equal gates, so the index is relative within each strain
How it was run: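 Plasmids isolated from each sorting gate were PCR-amplified and Illumina-sequenced, and barcodes assigned the reads to strains. The gates, four of equal size, were set by GFP/Cherry fluorescence ratio on mid-log cultures in leucine-free medium. These cultures were yeast carrying a pooled library of tiled 17-residue yeast protein peptides fused downstream of GFP on a plasmid that also expresses Cherry. The protein stability index is the sum of every gate's read frequency times its gate number.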

Sequence	protein stability index (pdr5∆)	protein stability index (san1∆)	protein stability index (ubr1∆)	protein stability index (doa10∆)
TPLFHALAEGHGDAAVL [NAS6]	3.1 ± 0.1	3.07 ± 0.091	2.61 ± 0.12	
TPLTFALPRGARTATVS [RPL14A]	1.5 ± 0.061	1.4 ± 0.1	1.57 ± 0.049	1.55 ± 0.063
TPMGGFVHYGEIKNDFI [RPL3]	3.19 ± 0.092	3.27 ± 0.12	3.28 ± 0.078	3.32 ± 0.093
TPNVNVLVLHGDKDTRA [ISW2]	2.36 ± 0.05	2.32 ± 0.08	2.81 ± 0.05	2.63 ± 0.05
TPQSKGFVRNSFFSGLS [RPO31]	2.79 ± 0.074	3.13 ± 0.089	2.86 ± 0.046	3.01 ± 0.089
TPSLPIAPPVAPHDSEA [SNF5]	2.48 ± 0.074	3.23 ± 0.064	2.52 ± 0.066	2.6 ± 0.07
TPSSDQNPLPTRFEVEL [SOH1]	3.1 ± 0.061	2.65 ± 0.075	3.19 ± 0.049	3.35 ± 0.088
TPTHSDSHEDMKRRRLE [ROX3]	3.33 ± 0.15	3.14 ± 0.18	3.14 ± 0.091	2.89 ± 0.15
TQDVFLKDFNTERVVEI [FAS2]	3.205 ± 0.023	3.211 ± 0.021	3.093 ± 0.019	3.116 ± 0.026
TQEQFVKRRRDMLEHIN [SRB4]	2.06 ± 0.27		1.26 ± 0.089	
TQQQPGAPGANARMPGM [SRP54]	2.89 ± 0.096	2.89 ± 0.25	2.7 ± 0.084	3.1 ± 0.12
TQQSHEQQPEQPQETEE [RPT4]	3.16 ± 0.058	2.99 ± 0.056	2.98 ± 0.047	2.9 ± 0.056
TQTEELKFMAASEVATH [PRP8]	2.48 ± 0.08	2.35 ± 0.081	2.66 ± 0.066	2.38 ± 0.084
TQTGLLQDLEEAKSFQD [RPC82]	2.46 ± 0.12	2.13 ± 0.14	2.59 ± 0.11	2.27 ± 0.25
TQYATSQKTKTIQSDLN [SMC2]	2.34 ± 0.072	2.1 ± 0.11	2.85 ± 0.05	2.21 ± 0.088
TRASKVLEQLSGQTPVQ [RPL11A]	3.01 ± 0.12	2.84 ± 0.074	3.06 ± 0.077	
TRDEKDPKRLFEGNALI [RPS9A]	3.6 ± 0.12	2.97 ± 0.18	3.71 ± 0.15	3.55 ± 0.2
TRFPPAVFYTPKELGGL [PRP8]	3.08 ± 0.07	3.25 ± 0.068	3.04 ± 0.063	3.19 ± 0.076
TRGRNIIMHKDVEIGRM [RET1]	3.1 ± 0.16	2.98 ± 0.076	2.74 ± 0.15	
TRGRSATIRETYEIICD [RRP43]	2.68 ± 0.05	2.57 ± 0.058	2.62 ± 0.035	2.59 ± 0.049
TRLLNIVMQLRKCCNHP [ISW2]	2.84 ± 0.061	2.94 ± 0.049	2.84 ± 0.057	2.65 ± 0.062
TRSIKEKWLLNQIPVTE [SRB6]	1.34 ± 0.18	1.29 ± 0.19	1.18 ± 0.17	1.13 ± 0.1
TRTVITDWDPQFNAITG [SMC2]	2.99 ± 0.083	2.67 ± 0.1	2.76 ± 0.098	2.96 ± 0.099
TRYMFQRDFRKHGAVHM [RPL21B]	2.14 ± 0.06	1.79 ± 0.12	1.99 ± 0.077	2.22 ± 0.099
TSAHEAIRADPAFKPTE [RPL5]	3.17 ± 0.14	3.11 ± 0.089	3.33 ± 0.11	3.24 ± 0.15
TSASQPFKFGKTSEKSE [YOR098C/NUP1]	3.22 ± 0.15	2.96 ± 0.13	3.17 ± 0.093	3.1 ± 0.14
TSCLQNNNQKIDDNYIV [SRB8]	3.1 ± 0.081	3.33 ± 0.11	3.05 ± 0.062	3.15 ± 0.072

Sequence	protein stability index (pdr5∆)	protein stability index (san1∆)	protein stability index (ubr1∆)	protein stability index (doa10∆)
TSDGALSVMCGCGTVKR [RPR2]	2.67 ± 0.1	1.93 ± 0.14	1.78 ± 0.13	2.43 ± 0.13
TSINHKIYRVGKGDDEA [RPL3]	3.61 ± 0.1	3.67 ± 0.044	3.28 ± 0.11	3.44 ± 0.071
TSLPDWCQEAFPSSETT [BRR2]	3.08 ± 0.099	3.25 ± 0.072	3.01 ± 0.15	2.93 ± 0.075
TSNKEGFNSIWKIPQND [SSN2]	3.72 ± 0.3	3.45 ± 0.15		3.29 ± 0.26
TSPGYSPGSPAYSPKQD [RPO21]	2.1 ± 0.063	2.39 ± 0.11	1.77 ± 0.05	2.31 ± 0.087
TSQKMTSTVNRLNTVTR [MCD1]	2.94 ± 0.18	3.57 ± 0.18	3.09 ± 0.098	3.16 ± 0.094
TSRIDEEKPGLIITRKA [SMC4]	3.07 ± 0.052	3.07 ± 0.044	3 ± 0.057	2.91 ± 0.063
TSSAFFYQQVHKKDRLQ [SIR4]	2 ± 0.046	2.26 ± 0.053	2.44 ± 0.032	2.43 ± 0.048
TSSLQLYKFQNFQDLSY [YML103C/NUP188]	3.04 ± 0.064	2.84 ± 0.055	2.65 ± 0.071	2.81 ± 0.065
TSSRQTVFLPMVGLVDP [RPT5]	2.62 ± 0.044	2.39 ± 0.044	2.16 ± 0.033	2.55 ± 0.038
TSSTPSPIKNGSCTRQL [YOR098C/NUP1]	3.02 ± 0.045	2.68 ± 0.046	3.09 ± 0.049	3.26 ± 0.064
TSSVILGSQSKSDEGGS [YOR098C/NUP1]	2.23 ± 0.12		1.81 ± 0.15	
TSTITKYKQLLLKDDTY [RPN3]	2.73 ± 0.15	2.89 ± 0.073	2.9 ± 0.084	2.71 ± 0.12
TSTNPNGLGTSHINTNV [ARP7]	3.28 ± 0.061	2.96 ± 0.061	3.33 ± 0.057	3.14 ± 0.068
TSVTRRSPVFALNMLPS [GRR1]	1.61 ± 0.037	1.51 ± 0.061	1.73 ± 0.033	1.45 ± 0.038
TTGGDYILSLVSIKDST [YMR129W/POM152]	2.04 ± 0.034	1.89 ± 0.052	1.68 ± 0.028	1.99 ± 0.042
TTKRLWSEITESMSYLP [MCD1]	2.91 ± 0.095	2.99 ± 0.11	2.73 ± 0.069	3.01 ± 0.12
TTLGKLSTSVGWKYEDV [RPL16A]	3 ± 0.071	2.97 ± 0.078	2.73 ± 0.073	2.87 ± 0.069
TTLNIKVEKRVLGLTIL [SMB1]	2.79 ± 0.093	2.39 ± 0.14	2.27 ± 0.08	1.86 ± 0.075
TTLVTRREELQQRIREI [SMC3]				3.06 ± 0.2
TTPYMTKYERARILGTR [RPO26]	3.3 ± 0.091	2.56 ± 0.18	3.45 ± 0.09	2.97 ± 0.14
TTQDQCKLTLDINVELF [RPB8]	2.96 ± 0.07	2.93 ± 0.037	3.3 ± 0.053	2.97 ± 0.054
TTSYIKEQENITIQDLL [DPB4]	2.83 ± 0.17	2.86 ± 0.082	3.02 ± 0.27	3.09 ± 0.19
TTTLAFRFQGGIIVAVD [PRE2]	3.07 ± 0.083	2.81 ± 0.072	3.26 ± 0.09	3.27 ± 0.096
TTTSFTTSEATANDRQI [RPN4]	3.13 ± 0.055	2.55 ± 0.063	3.25 ± 0.042	2.95 ± 0.051
TTVKPLFQNVPEQGEEP [YAR002W/NUP60]	3.3 ± 0.06	3.32 ± 0.04	3.21 ± 0.052	3.08 ± 0.07
